In US20260226152A1 (GlaxoSmithKline, published 2026):
Positions count from the first letter of the chain named. Read-outs that look alike come from different tables or passages of the source.

T1: Human IL-23 (human, UniProt Q9NPF7 20-189; P29460 23-328)
T1 sequence 1: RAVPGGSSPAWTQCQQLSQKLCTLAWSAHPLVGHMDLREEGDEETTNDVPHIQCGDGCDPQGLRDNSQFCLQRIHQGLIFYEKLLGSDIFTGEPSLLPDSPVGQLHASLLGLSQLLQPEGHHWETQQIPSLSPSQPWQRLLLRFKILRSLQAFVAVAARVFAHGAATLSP
T1 sequence 2: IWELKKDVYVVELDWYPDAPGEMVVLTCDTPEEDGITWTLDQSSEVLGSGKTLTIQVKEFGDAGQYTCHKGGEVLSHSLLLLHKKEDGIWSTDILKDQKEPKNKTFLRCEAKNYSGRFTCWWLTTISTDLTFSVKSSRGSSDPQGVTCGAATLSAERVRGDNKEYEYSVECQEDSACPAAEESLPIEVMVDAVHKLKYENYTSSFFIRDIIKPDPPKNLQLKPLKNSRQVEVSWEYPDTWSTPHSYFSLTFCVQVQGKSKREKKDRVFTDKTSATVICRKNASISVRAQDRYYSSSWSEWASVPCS

T2: Human IL-18 (human, UniProt Q14116 37-193)
T2 sequence: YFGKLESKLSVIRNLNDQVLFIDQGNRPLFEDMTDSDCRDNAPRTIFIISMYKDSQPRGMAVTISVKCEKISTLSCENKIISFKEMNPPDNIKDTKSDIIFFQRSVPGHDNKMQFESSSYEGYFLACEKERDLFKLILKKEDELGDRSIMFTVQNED

T3: Cynomolgus monkey IL-18 (Rhesus monkey (identical to cynomolgus …, UniProt Q9BGI5 37-193))
T3 sequence: T2 sequence with V11I, S50N, T63A, K79R, F134Y, E141K

B1: Heterodimeric bsAb 1 (bispecific antibody, human IgG1, kappa)
heavy 1: QVQLVQSGAEVKKPGASVKVSCKVSGEISTGYYFHWVRQAPGKGLEWMGRIDPEDDSTKYAERFKDRVTMTEDTSTDTAYMELSSLRSEDTAVYYCTTWRIYRDSSGRPFYVMDAWGQGTLVTVSSASTKGPSVFPLAPSSKSTSGGTAALGCEVTDYFPEPVTVSWNSGALTSGVHTFPAVLESSGLYSLSSVVTVPSSSLGTQTYICNVNHKPSNTKVDKKVEPKSCDKTHTCPPCPAPELAGAPSVFLFPPKPKDTLMISRTPEVTCVVVDVSHEDPEVKFNWYVDGVEVHNAKTKPREEQYNSTYRVVSVLTVLHQDWLNGKEYKCKVSNKALPAPIEKTISKAKGQPREPQVYVYPPSRDELTKNQVSLTCLVKGFYPSDIAVEWESNGQPENNYKTTPPVLDSDGSFALVSKLTVDKSRWQQGNVFSCSVMHEALHNHYTQKSLSLSPGK
light 1: DIQMTQSPSSVSASVGDRVTITCLASEDIYTYLTWYQQKPGKAPKLLIYGANKLQDGVPSRFSGSGSGTDYTLTISSLQPEDFATYYCLQGSKFPLTFGQGTKLEIKRTVAAPSVFIFPPSDERLKSGTASVVCLLNNFYPREAKVQWKVDNALQSGNSQESVTEQDSKDSTYSLSSRLTLSKADYEKHKVYACEVTHQGLSSPVTKSFNRGEC
heavy 2: QVQLVQSGAEVKKPGSSVKVSCKASGYTFTDQTIHWMRQAPGQGLEWIGYIYPRDDSPKYNENFKGKVTITADKSTSTAYMELSSLRSEDTAVYYCAIPDRSGYAWFIYWGQGTLVTVSSASTKGPSVFPLAPSSKSTSGGTAALGCRVKDYFPEPVTVSWNSGALTSGVHTFPAVLQSSGLYSLSSVVTVPSSSLGTQTYICNVNHKPSNTKVDKKVEPKSCDKTHTCPPCPAPELAGAPSVFLFPPKPKDTLMISRTPEVTCVVVDVSHEDPEVKFNWYVDGVEVHNAKTKPREEQYNSTYRVVSVLTVLHQDWLNGKEYKCKVSNKALPAPIEKTISKAKGQPREPQVYVLPPSRDELTKNQVSLLCLVKGFYPSDIAVEWESNGQPENNYLTWPPVLDSDGSFFLYSKLTVDKSRWQQGNVFSCSVMHEALHNHYTQKSLSLSPGK
light 2: DIQMTQSPSSLSASVGDRVTITCKASRDVAIAVAWYQQKPGKVPKLLIYWASTRHTGVPSRFSGSGSRTDFTLTISSLQPEDVADYFCHQYSSYPFTFGSGTKLEIKRTVAAPSVFIFPPSDEELKSGTASVECLLNNFYPREAKVQWKVDNALQSGNSQESVTEQDSKDSTYSLSSTLTLSKADYEKHKVYACEVTHQGLSSPVTKSFNRGEC
notes: Het-mAb format: anti-IL-18 mAb on ZA and anti-IL-23 mAb (risankizumab) on ZB, with Fc heterodimerisation and silencing mutations; Expressed transiently in HEK293 6E cells
B2: Heterodimeric bsAb 2 (bispecific antibody, human IgG1, kappa)
heavy 1: QVQLVQSGAEVKKPGSSVKVSCKASGYTFTDQTIHWMRQAPGQGLEWIGYIYPRDDSPKYNENFKGKVTITADKSTSTAYMELSSLRSEDTAVYYCAIPDRSGYAWFIYWGQGTLVTVSSASTKGPSVFPLAPSSKSTSGGTAALGCRVKDYFPEPVTVSWNSGALTSGVHTFPAVLQSSGLYSLSSVVTVPSSSLGTQTYICNVNHKPSNTKVDKKVEPKSCDKTHTCPPCP
light 1: B1 light 2
heavy 2: B1 heavy 1 with Y360L, T375L, K401L, T403W, A414F, V416Y
light 2: B1 light 1
notes: Het-mAb format: anti-IL-23 mAb (risankizumab) on ZA and anti-IL-18 mAb on ZB, with Fc heterodimerisation and silencing mutations
B3: Heterodimeric bsAb 3 (bispecific antibody, human IgG1, kappa)
heavy 1: B1 heavy 1
light 1: B1 light 1
heavy 2: QVQLVQSGAEVKKPGASVKVSCKASGYIFITYWMTWVRQAPGQGLEWMGQIFPASGSADYNEKFEGRVTMTTDTSTSTAYMELRSLRSDDTAVYYCARGGGGFAYWGQGTLVTVSSASTKGPSVFPLAPSSKSTSGGTAALGCRVKDYFPEPVTVSWNSGALTSGVHTFPAVLQSSGLYSLSSVVTVPSSSLGTQTYICNVNHKPSNTKVDKKVEPKSCDKTHTCPPCPAPELAGAPSVFLFPPKPKDTLMISRTPEVTCVVVDVSHEDPEVKFNWYVDGVEVHNAKTKPREEQYNSTYRVVSVLTVLHQDWLNGKEYKCKVSNKALPAPIEKTISKAKGQPREPQVYVLPPSRDELTKNQVSLLCLVKGFYPSDIAVEWESNGQPENNYLTWPPVLDSDGSFFLYSKLTVDKSRWQQGNVFSCSVMHEALHNHYTQKSLSLSPGK
light 2: DIQMTQSPSSLSASVGDRVTITCRTSENIYSYLAWYQQKPGKAPKLLIYNAKTLAEGVPSRFSGSGSGTDFTLTISSLQPEDFATYYCQHHYGIPFTFGQGTKVEIKRTVAAPSVFIFPPSDEELKSGTASVECLLNNFYPREAKVQWKVDNALQSGNSQESVTEQDSKDSTYSLSSTLTLSKADYEKHKVYACEVTHQGLSSPVTKSFNRGEC
notes: Het-mAb format: anti-IL-18 mAb on ZA and anti-IL-23 mAb (tildrakizumab) on ZB, with Fc heterodimerisation and silencing mutations
B4: IL-18 control 2 (antibody, V domains shown)
VH: QVQLVQSGAEVKKPGASVKVSCKVSGEISTGYYFHWVRQAPGKGLEWMGRIDPEDDSTKYAERFKDRVTMTEDTSTDTAYMELSSLRSEDTAVYYCTTWRIYRDSSGRPFYVMDAWGQGTLVTVSS
VL: DIQMTQSPSSVSASVGDRVTITCLASEDIYTYLTWYQQKPGKAPKLLIYGANKLQDGVPSRFSGSGSGTDYTLTISSLQPEDFATYYCLQGSKFPLTFGQGTKLEIK

Tests used:
[1] = biological target: T1, Human IL-23; test: cell-based or functional assay
[2] = biological target: T1, Human IL-23; test: cell-based or functional assay; remark: listed apart in the source
[3] = biological target: T2, Human IL-18; test: cell-based or functional assay
[4] = biological target: T1, Human IL-23; test: SPR (Biacore), antibody captured on Protein A/G, cytokine as analyte, 25 C, 1:1 fit, n=1
Protocol: (§1) A heterodimeric bsAb, alongside anti-IL-18 and anti-IL-23 common light chain control bispecific antibodies, were assessed for binding to human and cyno IL-18 and IL-23, using the Biacore 8K and T200 (Cytiva) surface plasmon resonance (SPR) instruments. All reagents were generated recombinantly in-house with the exception of Rhesus monkey IL-18 which was purchased from R&D systems (Cat #2548-RM-025/CF). Rhesus and cynomolgus monkey amino acid sequences are identical. Therefore, the protein will be referred to as cynomolgus monkey IL-18.
(§2) Heterodimeric bsAb, anti-IL-18 and anti-IL-23 common light chain bispecific control molecules were assessed for binding to recombinant human and cynomolgus monkey IL-18 and IL-23 using the Biacore 8K and T200 (Cytiva) SPR instruments. The antibodies were captured onto Protein A/G, which was immobilised onto flow cell 2 of 8 channels (Biacore 8K) or flow cells 2, 3 and 4 (Biacore T200) of a CM5 series S sensor chip by primary amine coupling. The IL-18 or IL-23 analytes were passed over the captured antibodies at varying concentrations between 0.04-25 nM. The association phase was for 240 seconds at 30 μl/min, followed by a dissociation step of up to 1200 seconds. A 0 nM (i.e., buffer alone) injection was used to double reference the binding curves. Regeneration of the chip surface between cycles was carried out using 50 mM NaOH. The assay was run at 25° C. in HBS-EP⁺ buffer. Biacore 8K control software version 3.0 was used to run the experiment. Data was analysed using Biacore 8K Insight evaluation software version 3.0. Biacore T200 control software version 1.0 was used to run the experiment. Data was analysed using Biacore T200 evaluation software version 2.0. Affinities and kinetics were determined using the 1:1 kinetic fit inherent to the software where possible. All affinity values generated using both instruments were combined to determine geometric mean values.

[5] = biological target: T2, Human IL-18; test: as above
Protocol: as §1, §2

[6] = biological target: T2, Human IL-18; test: cell-based or functional assay; remark: listed apart in the source
[7] = biological target: T3, Cynomolgus monkey IL-18; test: cell-based or functional assay
[8] = biological target: T2, Human IL-18; test: cell-based or functional assay; remark: listed apart in the source

Row | Binder | IC50 Heterodimeric bsAbs (% of Parent IL-23 control 2), IL-23-induced pSTAT3 in T cells of human whole blood [1] | IC50 Heterodimeric bsAbs (pM), inhibition of IL-23-induced pSTAT3 in CD3+CD161+ T cells of human whole blood [1] [pM] | IC50 Heterodimeric bsAb (% of Parent IL-23 control 2), IL-23-induced mouse IL-17A in mouse splenocytes [2] | IC50 Heterodimeric bsAb (pM), inhibition of human IL-23-induced mouse IL-17A secretion in mouse splenocytes [2] [pM] | IC50 (pM, Mean), neutralisation of human IL-18-induced IFNγ secretion by KG-1 cells [3] [pM] | pIC50 (GeoMean), neutralisation of human IL-18-induced IFNγ secretion by KG-1 cells [3] | Kd [4] [nM] | Kd [5] [nM] | IC50 Heterodimeric bsAbs (% of Parent IL-18 control 3), LPS + IL12-induced IFN-γ in human whole blood [6] | IC50 Heterodimeric bsAbs (nM), inhibition of LPS + IL12-induced IFN-γ in human whole blood [6] [nM] | IC50 Heterodimeric bsAbs (% of Parent IL-23 control 3), IL-23-induced pSTAT3 in T cells of human whole blood [1] | IC50 Heterodimeric bsAb (% of Parent IL-23 control 3), IL-23-induced mouse IL-17A in mouse splenocytes [2] | IC50 (pM, Mean), neutralisation of cynomolgus IL-18-induced IFNγ secretion by KG-1 cells [7] [pM] | pIC50 (GeoMean), neutralisation of cynomolgus IL-18-induced IFNγ secretion by KG-1 cells [7] | IC50 (pM, Mean), neutralisation of human IL-18-induced IFNγ secretion by KG-1 cells [8] [pM] | pIC50 (GeoMean), neutralisation of human IL-18-induced IFNγ secretion by KG-1 cells [8]
1 | B1 | 218 % of Parent | 615 | 254 % of Parent | 153 | 133 | 9.88 | 0.374 | < 0.01 | 191 % of Parent | 16 |  |  |  |  |  | 
2 | B2 | 249 % of Parent | 711 | 274 % of Parent | 147 | 77.6 | 10.1 | 0.158 | < 0.01 | 240 % of Parent | 18.2 |  |  |  |  |  | 
3 | B3 |  | 640 |  | 2670 | 105 | 9.98 | 0.499 | < 0.01 | 280 % of Parent | 21.7 | 100 % of Parent | 387 % of Parent |  |  |  | 
4 | B4 |  |  |  |  | 41 | 10.4 |  |  |  |  |  |  | 64.6 | 10.2 | 39.8 | 10.4
